From patent publication US20220372155A1 (LYVGEN BIOPHARMA, published 2022) come the findings set out here.

Holding throughout (assay): FACS, CHO cells
The target of assay [1] is T1, human CD40 expressed on CHO cells (human, UniProt P25942 21-277).
T1 construct: whole, on cells; also used for the reporter cells over-expressing human CD40; also called cellular CD40; CHO-CD40 cells

The target in assay [2] is T2, human PD-1 expressed on CHO cells (human, UniProt Q15116 25-288).
T2 construct: whole, on cells; also used for human PD-1 on Jurkat reporter cells; also called Jurkat/NFkB-Luci/PD-1 cells

For assay [3], the target named is T3, human B7H4 expressed on CHO cells (human, UniProt Q7Z7D3 25-282).
T3 construct: whole, on cells; also called VCTN1
T3 sequence (looked up): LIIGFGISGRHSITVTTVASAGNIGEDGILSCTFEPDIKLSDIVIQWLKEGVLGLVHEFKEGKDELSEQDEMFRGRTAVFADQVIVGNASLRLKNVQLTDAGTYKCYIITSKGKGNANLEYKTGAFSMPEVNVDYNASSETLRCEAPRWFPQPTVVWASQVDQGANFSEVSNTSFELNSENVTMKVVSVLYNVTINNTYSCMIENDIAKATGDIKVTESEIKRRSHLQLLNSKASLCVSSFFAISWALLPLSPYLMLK

T1 sequence (P25942 21-277): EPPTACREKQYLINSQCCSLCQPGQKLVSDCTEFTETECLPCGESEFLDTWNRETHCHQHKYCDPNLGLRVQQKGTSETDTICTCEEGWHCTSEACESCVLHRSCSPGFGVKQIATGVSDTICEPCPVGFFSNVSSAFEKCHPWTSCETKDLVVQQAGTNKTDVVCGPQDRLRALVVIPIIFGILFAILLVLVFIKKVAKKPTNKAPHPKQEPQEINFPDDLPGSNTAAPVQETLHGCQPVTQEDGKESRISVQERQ
T2 sequence (Q15116 25-288): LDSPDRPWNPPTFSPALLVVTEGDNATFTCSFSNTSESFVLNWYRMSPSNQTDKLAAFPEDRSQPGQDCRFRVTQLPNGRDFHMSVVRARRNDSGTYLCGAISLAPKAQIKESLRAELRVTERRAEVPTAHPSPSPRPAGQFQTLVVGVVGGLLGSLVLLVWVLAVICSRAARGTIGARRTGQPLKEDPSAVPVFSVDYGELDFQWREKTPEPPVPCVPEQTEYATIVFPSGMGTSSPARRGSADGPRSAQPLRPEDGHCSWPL

B1: Ly817 (bispecific antibody, human IgG1, kappa)
heavy: QVTLKESGPALVKPTQTLTLTCTFSGFSLSTSGTCVSWIRQPPGKALEWLATICWEDSKGYNPSLKSRLTISKDTSKNQAVLTMTNMDPVDTATYYCARREDSGYFWFPYWGQGTLVTVSSASTKGPSVFPLAPSSKSTSGGTAALGCLVKDYFPEPVTVSWNSGALTSGVHTFPAVLQSSGLYSLSSVVTVPSSSLGTQTYICNVNHKPSNTKVDKKVEPKSCDKTHTCPPCPAPELLGPSVFLFPPKPKDTLMISRTPEVTCVVVDVSHEDPEVKFNWYVDGVEVHNAKTKPREEQYNSTYRVVSVLTVLHQDWLNGKEYKCKVSNKALPAPIEKTISKAKGQPREPQVYTLPPSREEMTKNQVSLTCLVKGFYPSDIAVEWESNGQPENNYKTTPPVLDSDGSFFLYSKLTVDKSRWQQGNVFSCSVMHEALHNHYTQKSLSLSPGK
light: NIQMTQSPSSLSASVGDRVTITCKAGQNVNNYLAWYQQKPGKAPKVLIFNANSLQTGVPSRFSGSGSGTDFTLTISSLQPEDFATYYCQQYNSWPTFGGGTKVEIKRTVAAPSVFIFPPSDEQLKSGTASVVCLLNNFYPREAKVQWKVDNALQSGNSQESVTEQDSKDSTYSLSSTLTLSKADYEKHKVYACEVTHQGLSSPVTKSFNRGECGGGGSGGGGSGGGGSGGGGSDIQMTQSPSSLSASVGDRVTITCKASQNIYIYLNWYQQKPGKAPKLLIYNTNNLQTGVPSRFSGSGSGTDFTLTISSLQPEDFATYYCLQHSSRRTFGGGTKVEIKGGGGSGGGGSGGGGSGGGGSQVQLVESGGGLVQPGGSLKLSCATSGFNFNDYFMNWVRQASGKGLEWVGQIRNKNYNYATYYTESLEGRVTISRDDSKNTAYLQMNSLKTEDTAVYYCTSYYYDGFADYFDYWGQGTTVTVSS
notes: Ly516 HC (IgG1 mutated Fc) + Ly516 LC-TM740 scFv VL-VH
As for B1, the binding result in assay [1] and in assay [2] was “binds” throughout.

B2: Ly818 (bispecific antibody, human IgG1, kappa)
heavy: B1 heavy
light: NIQMTQSPSSLSASVGDRVTITCKAGQNVNNYLAWYQQKPGKAPKVLIFNANSLQTGVPSRFSGSGSGTDFTLTISSLQPEDFATYYCQQYNSWPTFGGGTKVEIKRTVAAPSVFIFPPSDEQLKSGTASVVCLLNNFYPREAKVQWKVDNALQSGNSQESVTEQDSKDSTYSLSSTLTLSKADYEKHKVYACEVTHQGLSSPVTKSFNRGECGGGGSGGGGSGGGGSGGGGSQVQLVESGGGLVQPGGSLKLSCATSGFNFNDYFMNWVRQASGKGLEWVGQIRNKNYNYATYYTESLEGRVTISRDDSKNTAYLQMNSLKTEDTAVYYCTSYYYDGFADYFDYWGQGTTVTVSSGGGGSGGGGSGGGGSGGGGSDIQMTQSPSSLSASVGDRVTITCKASQNIYIYLNWYQQKPGKAPKLLIYNTNNLQTGVPSRFSGSGSGTDFTLTISSLQPEDFATYYCLQHSSRRTFGGGTKVEIK
notes: Ly516 HC (IgG1 mutated Fc) + Ly516 LC-TM740 scFv VH-VL
B2: the binding result in assay [1] and in assay [2] was “binds” throughout.

B3: Ly488 (bispecific antibody, human IgG1, kappa)
heavy: EVQLVESGGGLVKPGGSLKLSCAASGFTFSDSGMHWVRQAPEKGLEWITYINSGSSTIYYADSVKGRFTISRDNAKNTLFLQMTSLRSEDTAMYYCARGRGYAMDYWGQGTSVTVSSASTKGPSVFPLAPSSKSTSGGTAALGCLVKDYFPEPVTVSWNSGALTSGVHTFPAVLQSSGLYSLSSVVTVPSSSLGTQTYICNVNHKPSNTKVDKKVEPKSCDKTHTCPPCPAPELLGPSVFLFPPKPKDTLMISRTPEVTCVVVDVSHEDPEVKFNWYVDGVEVHNAKTKPREEQYNSTYRVVSVLTVLHQDWLNGKEYKCKVSNKALPAPIEKTISKAKGQPREPQVYTLPPSREEMTKNQVSLTCLVKGFYPSDIAVEWESNGQPENNYKTTPPVLDSDGSFFLYSKLTVDKSRWQQGNVFSCSVMHEALHNHYTQKSLSLSPGK
light: EIVLTQSPTTMAASPGEKITIFCSASSSISSDFLHWYQQKPGFSPKLLIYRISNLASGVPARFSGSGSGTSYSLTIGTMEAEDVATYYCQQGSNVPRTFGGGTKLEIKRTVAAPSVFIFPPSDEQLKSGTASVVCLLNNFYPREAKVQWKVDNALQSGNSQESVTEQDSKDSTYSLSSTLTLSKADYEKHKVYACEVTHQGLSSPVTKSFNRGECGGGGSGGGGSGGGGSGGGGSDIQMTQSPSSLSASVGDRVTITCKASQNIYIYLNWYQQKPGKAPKLLIYNTNNLQTGVPSRFSGSGSGTDFTLTISSLQPEDFATYYCLQHSSRRTFGGGTKVEIKGGGGSGGGGSGGGGSGGGGSQVQLVESGGGLVQPGGSLKLSCATSGFNFNDYFMNWVRQASGKGLEWVGQIRNKNYNYATYYTESLEGRVTISRDDSKNTAYLQMNSLKTEDTAVYYCTSYYYDGFADYFDYWGQGTTVTVSS
notes: Ly366 HC (IgG1 mutated Fc) + Ly366 LC-TM740 scFv VL-VH
For B3, the binding result in assay [1] and in assay [3] was “binds” in each case.

B4: Ly492 (bispecific antibody, human IgG1, kappa)
heavy: B3 heavy
light: EIVLTQSPTTMAASPGEKITIFCSASSSISSDFLHWYQQKPGFSPKLLIYRISNLASGVPARFSGSGSGTSYSLTIGTMEAEDVATYYCQQGSNVPRTFGGGTKLEIKRTVAAPSVFIFPPSDEQLKSGTASVVCLLNNFYPREAKVQWKVDNALQSGNSQESVTEQDSKDSTYSLSSTLTLSKADYEKHKVYACEVTHQGLSSPVTKSFNRGECGGGGSGGGGSGGGGSGGGGSDIQMTQSPSSLSASVGDRVTITCLASEDISNDLAWYQQKPGKAPKLLIYFVDRLLDGVPSRFSGSGSGTDFTLTISSLQPEDFATYYCQQSYKYPPTFGQGTKLEIKGGGGSGGGGSGGGGSGGGGSEVQLVESGGGLVQPGGSLRLSCAASGFTFTNYGLHWVRQAPGKGLEWVSSISPSGGVTYYRDSVKGRFTISRDNSKNTLYLQMNSLRAEDTAVYYCAKPFLGWGGANWIAHWGQGTLVTVSS
notes: Ly366 HC (IgG1 mutated Fc) + Ly366 LC-TM559 scFv VL-VH
For B4, the binding result in assay [1] and in assay [3] was “binds” each time.

B5: Ly497 (bispecific antibody, human IgG1, kappa)
heavy: B3 heavy
light: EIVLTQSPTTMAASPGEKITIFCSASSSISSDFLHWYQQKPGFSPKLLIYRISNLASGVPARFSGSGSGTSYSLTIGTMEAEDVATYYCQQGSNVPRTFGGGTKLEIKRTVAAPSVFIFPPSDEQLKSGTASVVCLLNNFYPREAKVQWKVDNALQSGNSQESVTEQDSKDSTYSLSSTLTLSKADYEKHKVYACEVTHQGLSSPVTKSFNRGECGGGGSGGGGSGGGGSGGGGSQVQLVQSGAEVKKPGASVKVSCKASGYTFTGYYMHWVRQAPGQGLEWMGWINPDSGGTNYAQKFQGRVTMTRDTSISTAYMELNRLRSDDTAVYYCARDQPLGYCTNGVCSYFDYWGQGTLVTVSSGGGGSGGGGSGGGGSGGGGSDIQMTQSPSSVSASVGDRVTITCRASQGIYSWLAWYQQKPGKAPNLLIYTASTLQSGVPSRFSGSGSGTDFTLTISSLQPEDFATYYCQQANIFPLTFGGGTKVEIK
notes: Ly366 HC (IgG1 mutated Fc) + Ly366 LC-Ly253 scFv VH-VL
As for B5, the binding result in assay [1] and in assay [3] was “binds” each time.

B6: Ly493 (bispecific antibody, human IgG1, kappa)
heavy: B3 heavy
light: EIVLTQSPTTMAASPGEKITIFCSASSSISSDFLHWYQQKPGFSPKLLIYRISNLASGVPARFSGSGSGTSYSLTIGTMEAEDVATYYCQQGSNVPRTFGGGTKLEIKRTVAAPSVFIFPPSDEQLKSGTASVVCLLNNFYPREAKVQWKVDNALQSGNSQESVTEQDSKDSTYSLSSTLTLSKADYEKHKVYACEVTHQGLSSPVTKSFNRGECGGGGSGGGGSGGGGSGGGGSEVQLVESGGGLVQPGGSLRLSCAASGFTFTNYGLHWVRQAPGKGLEWVSSISPSGGVTYYRDSVKGRFTISRDNSKNTLYLQMNSLRAEDTAVYYCAKPFLGWGGANWIAHWGQGTLVTVSSGGGGSGGGGSGGGGSGGGGSDIQMTQSPSSLSASVGDRVTITCLASEDISNDLAWYQQKPGKAPKLLIYFVDRLLDGVPSRFSGSGSGTDFTLTISSLQPEDFATYYCQQSYKYPPTFGQGTKLEIK
notes: Ly366 HC (IgG1 mutated Fc) + Ly366 LC-TM559 scFv VH-VL
For the molecule B6, the binding result in assay [1] and in assay [3] was “binds” throughout.

B7: Ly489 (bispecific antibody, human IgG1, kappa)
heavy: B3 heavy
light: EIVLTQSPTTMAASPGEKITIFCSASSSISSDFLHWYQQKPGFSPKLLIYRISNLASGVPARFSGSGSGTSYSLTIGTMEAEDVATYYCQQGSNVPRTFGGGTKLEIKRTVAAPSVFIFPPSDEQLKSGTASVVCLLNNFYPREAKVQWKVDNALQSGNSQESVTEQDSKDSTYSLSSTLTLSKADYEKHKVYACEVTHQGLSSPVTKSFNRGECGGGGSGGGGSGGGGSGGGGSQVQLVESGGGLVQPGGSLKLSCATSGFNFNDYFMNWVRQASGKGLEWVGQIRNKNYNYATYYTESLEGRVTISRDDSKNTAYLQMNSLKTEDTAVYYCTSYYYDGFADYFDYWGQGTTVTVSSGGGGSGGGGSGGGGSGGGGSDIQMTQSPSSLSASVGDRVTITCKASQNIYIYLNWYQQKPGKAPKLLIYNTNNLQTGVPSRFSGSGSGTDFTLTISSLQPEDFATYYCLQHSSRRTFGGGTKVEIK
notes: Ly366 HC (IgG1 mutated Fc) + Ly366 LC-TM740 scFv VH-VL
Take B7: the binding result in assay [1] and in assay [3] was “binds” each time.

B8: Ly496 (bispecific antibody, human IgG1, kappa)
heavy: B3 heavy
light: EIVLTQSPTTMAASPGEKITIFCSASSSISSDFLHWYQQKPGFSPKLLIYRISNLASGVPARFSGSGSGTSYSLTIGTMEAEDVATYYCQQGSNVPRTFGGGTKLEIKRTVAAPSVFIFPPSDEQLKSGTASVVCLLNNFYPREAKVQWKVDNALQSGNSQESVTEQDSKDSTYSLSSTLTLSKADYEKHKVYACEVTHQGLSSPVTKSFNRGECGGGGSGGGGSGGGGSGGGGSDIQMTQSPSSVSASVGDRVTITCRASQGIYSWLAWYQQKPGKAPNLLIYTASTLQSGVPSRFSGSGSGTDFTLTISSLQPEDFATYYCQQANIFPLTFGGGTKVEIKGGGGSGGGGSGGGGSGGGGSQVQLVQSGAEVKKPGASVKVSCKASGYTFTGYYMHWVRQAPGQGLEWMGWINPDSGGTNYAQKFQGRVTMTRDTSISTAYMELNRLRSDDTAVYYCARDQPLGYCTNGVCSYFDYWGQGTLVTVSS
notes: Ly366 HC (IgG1 mutated Fc) + Ly366 LC-Ly253 scFv VL-VH
Consider B8, for which the binding result in assay [1] and in assay [3] was “binds” in each case.

B9: Ly474 (bispecific antibody, human IgG1, kappa)
heavy: EVQLVESGGDLVKPGGSLKLSCAASGFTFSSYGMSWVRQTPDKRLEWVAAISTGGSYTYYPDSVKGRFTISRDTATNTLYLQMSTLKSEDTAMYYCTRRGATGSWFAYWGQGTLVTVSAASTKGPSVFPLAPSSKSTSGGTAALGCLVKDYFPEPVTVSWNSGALTSGVHTFPAVLQSSGLYSLSSVVTVPSSSLGTQTYICNVNHKPSNTKVDKKVEPKSCDKTHTCPPCPAPELLGPSVFLFPPKPKDTLMISRTPEVTCVVVDVSHEDPEVKFNWYVDGVEVHNAKTKPREEQYNSTYRVVSVLTVLHQDWLNGKEYKCKVSNKALPAPIEKTISKAKGQPREPQVYTLPPSREEMTKNQVSLTCLVKGFYPSDIAVEWESNGQPENNYKTTPPVLDSDGSFFLYSKLTVDKSRWQQGNVFSCSVMHEALHNHYTQKSLSLSPGGGGGSGGGGSGGGGSGGGGSDIQMTQSPSSLSASVGDRVTITCKASQNIYIYLNWYQQKPGKAPKLLIYNTNNLQTGVPSRFSGSGSGTDFTLTISSLQPEDFATYYCLQHSSRRTFGGGTKVEIKGGGGSGGGGSGGGGSGGGGSQVQLVESGGGLVQPGGSLKLSCATSGFNFNDYFMNWVRQASGKGLEWVGQIRNKNYNYATYYTESLEGRVTISRDDSKNTAYLQMNSLKTEDTAVYYCTSYYYDGFADYFDYWGQGTTVTVSS
light: DILMTQSPSSMSVSLGDTVSITCHASQGINNNIGWLQRKPGKSFKGLIYHGTNLEDGVPSRFSGSGSGADYSLTISSLESEDFADYYCVQYVQFPRTFGGGTKLEIKRTVAAPSVFIFPPSDEQLKSGTASVVCLLNNFYPREAKVQWKVDNALQSGNSQESVTEQDSKDSTYSLSSTLTLSKADYEKHKVYACEVTHQGLSSPVTKSFNRGEC
notes: Ly361 HC (IgG1 mutated Fc)-TM740 scFv VL-VH + Ly361 LC
Regarding B9, the binding result in assay [1] and in assay [3] was “binds” in each case.
